According to patent publication US20250352611A1, “METHODS FOR TREATING CATARACTS USING POLYPEPTIDES” (REJUKON BIOPHARM INC., priority 2022, published 2025):
Where no end group is shown, it is not given here.

How the values were obtained:
[1] = Half-life of cell-penetrating peptide fused Champ peptides in eukaryotic cells (western blot); format: in vitro ADME; settings: SH-SY5Y cells harvested at 1 h, 4 h, 8 h and 24 h, western blot
Experimental: (§1) As described in Example 1, the polypeptide RJK001 was fused at its C-terminal with a cell-penetrating peptide ([…]) and the polypeptide RJK012 was fused at its N-terminal with a cell-penetrating peptide ([…]).
(§2) C-terminal fusion cell-penetrating peptide RJK001 and N-terminal fusion cell-penetrating peptide RJK012 were purified in vitro and added into SH-SY5Y cell. Cells were harvested at 1 h, 4 h, 8 h and 24 h respectively and were washed with PBS. Total proteins were extracted from SH-SY5Y cells with lysis buffer. Equal amounts of protein (20 μg) were separated by SDS-PAGE (15% separating gel). For data analysis, ImageJ was used to detect the Integrated density of each protein bands, and the ratio and half-life of Champ peptides were calculated by comparing with the positive control. […]
(§3) Cells were harvested at 1 h, 4 h, 8 h and 24 h respectively and were washed with PBS. […] For data analysis, quantification of the western blot bands was achieved using the software GELPRO (Media Cybernetics). The ratio and half-life of Champ peptides were calculated by comparing with the positive control. The presented quantitative data were calculated from three independent experiments.

G3BP1-GFP protein = molecular target: T1, G3BP1-GFP protein (Mus musculus, UniProt P97855); assay: G3BP1-GFP phase separated droplet dissolution, confocal laser microscope; format: biochemical; settings: 60 uM polypeptide, 20 uM G3BP1-GFP
T1 construct: Genes of full-length mouse G3BP1, G3BP1-eGFP; thrombin protease cleavage site (C); His6 (C); made in house; host or cells: Escherichia coli rosetta (DE3)
Experimental: The prokaryotic expressed and purified G3BP1-GFP protein (pH7.5, 20 uM G3BP1-GFP) was induced to form phase separated droplets in vitro. Polypeptides Champ-E (RJK001), Champ-D (RJK002), Champ-K (RJK012) and Champ-Q (RJK005, […], SEQ ID NO: 34) (each of 60 uM) were added dropwise to the G3BP1-GFP droplets. The observation was performed continuously through a confocal laser microscope.
For G3BP1(FL)-eGFP, purified G3BP1(FL)-eGFP, Champ-E and its variants were changed were diluted to droplet buffer (50 mM Tris, pH 7.5, 150 mM NaCl) using SpinDesalt Column (smart). G3BP1(FL)-eGFP proteins were diluted to indicated concentrations and supplemented with PEG8000 with 1.25% final concentration for 10 min to induce phase separation as reported.

[2] = tested on: γD (W42D) aggregates in the SH-SY5Y cell; assay: γD (W42D) aggregates in SH-SY5Y cells, live imaging and CellProfiler analysis; format: cell-based; settings: added every 4 hours for a total of 24 hours
Experimental: Cells were grown in a 12-well plate (1×10^5 cells per well) for 24 hours and transfected with γD (W42D) plasmid using EZtrans transfection reagent. 24 hours after transfection, Champ peptides RJK001 (final concentration of 20 uM) and RJK0012 (final concentration of 10 uM and 20 uM) were added into SH-SY5Y cell culture medium every 4 hours for a total of 24 hours. The effect of RJK001 and RJK012 polypeptide on the γD (W42D) aggregates in the SH-SY5Y cell mode were analyzed using a custom CellProfiler software. Briefly, cell bodies were then segmented and identified by the GFP fluorescence channel images and tracing outward to the limits of the cytoplasmic (using a diameter cutoff of 100-300 pixels). The cell bodies were used as masks to eliminate imaging artifacts outside of cell boundaries, such as background fluorescence or dead cells. After masking, punctate structures were enhanced by image processing for speckle-like features that were 10 pixels in diameter for SH-SY5Y cells and these punctate structures were then annotated as features such as γD (W42D) puncta. Finally, the total image area which was enclosed in each of the identified features (number of cell and punctate) was calculated and output to spreadsheets. At least 200 cells per sample were analyzed. […]
Granules screen and assay images were segmented and image features quantified using a custom CellProfiler and ImageJ software. […] The effect of RJK001 and RJK012 polypeptide on the γD ([…]) aggregates in the SH-SY5Y cell mode were analyzed using a custom CellProfiler software. Briefly, cell bodies were then segmented and identified by the GFP fluorescence channel images and tracing outward to the limits of the cytoplasmic (using a diameter cutoff of 100-300 pixels). The cell bodies were used as masks to eliminate imaging artifacts outside of cell boundaries, such as background fluorescence or dead cells. […] Finally, the total image area which was enclosed in each of the identified features (number of cell and punctate) was calculated and output to spreadsheets. At least 200 cells per sample were analyzed.

G3BP1 = molecular target: T2, G3BP1 (Mus musculus, UniProt P97855); assay: G3BP1 turbidity assay (OD395 nm); format: biochemical; settings: G3BP1 30 μM, ratio range 0.75 to 25, room temperature, 10 minutes
T2 construct: Genes of full-length mouse G3BP1, G3BP1-eGFP; thrombin protease cleavage site (C); His6 (C); made in house; host or cells: Escherichia coli rosetta (DE3)
Experimental: The turbidity of G3BP1 (30 μM) in the presence of various concentrations of Champ-E, Champ-D, Champ-K, or Champ-Q was measured at a wavelength of 395 nm. Briefly, G3BP1 protein ([…]) and polypeptides Champ-E (RJK001), Champ-D (RJK002), Champ-K (RJK012) and Champ-Q (RJK005) were mixed well in a ratio range of 0.75 to 25 at room temperature for 10 minutes prior to turbidity assays. Absorbance at 395 nm (OD395 nm) was monitored at room temperature using Nanodrop ONE (Thermo Fisher Scientific, Inc.). […] The turbidity level reflects the degree of phase separation.
Briefly, the G3BP1 protein and the above-mentioned peptides were mixed at room temperature for 10 minutes prior to turbidity assays. 30 μM G3BP1 and peptide were mixed well in a ratio range of 0.75 to 25 before test. Absorbance at 395 nm (OD395 nm) was monitored at room temperature using Nanodrop ONE (Thermo Fisher Scientific, Inc.).
We followed the Turbidity Assays experiment as previously reported. Briefly, G3BP1 turbidity analysis were at room temperature and γD-crystallin protein was at 4° C. Proteins and Champ-E(RJK001), Champ-K, Champ-D or mutants are mixed at room temperature for 10 minutes prior to turbidity assays. 20 μM G3BP1 and 50 mg/ml(2.5 mM) γD-crystallin and peptide were mixed well in a ratio range of 0.75 to 25 before test. Absorbance at 395 nm (OD395 nm) was monitored at room temperature using Nanodrop ONE (Thermo Fisher Scientific, Inc.).

[3] = molecular target: T3, wild-type human full-length γD-crystallin (human, UniProt P07320 1-174); assay: 1H-15N HSQC NMR chemical shift differences, 15N γD-crystallin with unlabeled RJK001 at 1:2
T3 construct: It was uniformly 15N-labelled for the HSQC experiment and unlabelled for the turbidity assay; also called full-length wildtype γD-crystallin protein; 15N γD-crystallin
T3 sequence (looked up): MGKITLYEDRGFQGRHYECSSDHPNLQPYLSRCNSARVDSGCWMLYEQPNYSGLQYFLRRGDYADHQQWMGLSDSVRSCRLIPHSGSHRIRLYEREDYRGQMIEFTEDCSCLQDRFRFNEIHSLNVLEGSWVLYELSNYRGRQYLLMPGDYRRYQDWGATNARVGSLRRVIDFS
Experimental: Using final 300 uM human γD-crystallin at 25° C., the two-dimensional [¹H-¹⁵N] heteronuclear single quantum coherence (HSQC) spectra were recorded to determine the domain interactions at the residue-specific level.

SH-SY5Y cells = assay: Half-life of cell-penetrating peptide fused Champ peptides in eukaryotic cells (western blot); format: in vitro ADME
Experimental: as §1, §2, §3

| Molecule | dissolution of G3BP1-GFP phase separated droplets (G3BP1-GFP protein; pH7.5, 40s after addition) | turbidity of G3BP1 (OD395 nm) (G3BP1) | dissolution of G3BP1-GFP phase separated droplets (G3BP1-GFP protein; pH7.5, 120s after addition) | further results |
| --- | --- | --- | --- | --- |
| TEPQEESEEEVEEPEERQQTPEVVPDDSGTFYDQTVSNDLEGGRKKRRQRRRHHHHHHHH |  |  |  | half-life [1]: ~8 h |
| TKPQKKSKKKVKKPKKRQQTPKVVPDDSGTFYDQTVSNDLK [RJK012, Lys variant of Champ-E] | significantly dissolved the phase separated droplets | reduced the turbidity in a concentration dependent manner |  | number of γD (W42D) aggregates in the SH-SY5Y cell ([2]; 10 uM): reduced the number of γD (W42D) aggregates in the SH-SY5Y cell in a time-dependent manner until 6 hours; number of γD (W42D) aggregates in the SH-SY5Y cell ([2]; 20 uM): reduced the number of γD (W42D) aggregates in the SH-SY5Y cell in a time-dependent manner until 12 hours |
| TDPQDDSDDDVDDPDDRQQTPDVVPDDSGTFYDQTVSNDLD [RJK002, Asp variant of Champ-E] | partially dissolved the phase separated droplets | reduced the turbidity in a concentration dependent manner | dissolved more phase separated droplets |  |
| TQPQQQSQQQVQQPQQRQQTPQVVPDDSGTFYDQTVSNDLQ [RJK005] |  | much less effect on the reduction of the turbidity | did not dissolve the phase separated droplets |  |
| TEPQEESEEEVEEPEERQQTPEVVPDDSGTFYDQTVSNDLE (The peptide was unlabeled in the NMR experiment; also called short peptide RJK001) [Champ-E (RJK001)] |  |  |  | binding result [3]: binds |
| RQIKIWFQNRRMKWKKKTKPQKKSKKKVKKPKKRQQTPKVVPDDSGTFYDQTVSNDLKSGRPVLHHHHHH (peptide) RQIKIWFQNRRMKWKKKTKPQKKSKKKVKKPKKRQQTPKVVPDDSGTFYDQTVSNDLKSGRPVLHHHHHH |  | reduce the turbidity in a concentration dependent manner |  | half-life in eukaryotic cells (SH-SY5Y cells): about 8 hours |
